target: Lys119 (UniProt position 119, IPVLRKDFVVQ); experiment: kinetics; conditions: 25 °C; 100 mM NaCl in MTEN buffer (said to have minimal change in ionic strength with pH); Steady-state turnover with CdRP (60 µM) above KM; enzyme 0.25-60 µM depending on variant

Substance	pKa
Indole-3-glycerol phosphate synthase (MtIGPS), wild type (Mycobacterium tuberculosis)	9.0 ± 0.1
MtIGPS Glu219Asn (Mycobacterium tuberculosis; E219N)	10.0 ± 0.2
MtIGPS Glu219Gln (Mycobacterium tuberculosis; E219Q)	9.9 ± 0.1
MtIGPS Glu219Asp (Mycobacterium tuberculosis; E219D)	7.6 ± 0.2
MtIGPS Glu57Asp (Mycobacterium tuberculosis; E57D)	7.7 ± 0.1
